Results as given in patent US11578136B2, “Compositions and methods for treating cancer” (INNATE PHARMA, priority 2017, dated 2023).
Entries after “also recorded” stand apart in the source; their conditions may differ.

Assays:
[1] = target: T1, soluble recombinant human CD39 protein (Homo sapiens, UniProt P49961); assay: Inhibition of the enzymatic activity of soluble CD39 (Cell Titer Glo); type: biochemical
T1 construct: made in house; host or cells: CHO cells
T1 sequence (P49961 with tags, fused parts or gaps): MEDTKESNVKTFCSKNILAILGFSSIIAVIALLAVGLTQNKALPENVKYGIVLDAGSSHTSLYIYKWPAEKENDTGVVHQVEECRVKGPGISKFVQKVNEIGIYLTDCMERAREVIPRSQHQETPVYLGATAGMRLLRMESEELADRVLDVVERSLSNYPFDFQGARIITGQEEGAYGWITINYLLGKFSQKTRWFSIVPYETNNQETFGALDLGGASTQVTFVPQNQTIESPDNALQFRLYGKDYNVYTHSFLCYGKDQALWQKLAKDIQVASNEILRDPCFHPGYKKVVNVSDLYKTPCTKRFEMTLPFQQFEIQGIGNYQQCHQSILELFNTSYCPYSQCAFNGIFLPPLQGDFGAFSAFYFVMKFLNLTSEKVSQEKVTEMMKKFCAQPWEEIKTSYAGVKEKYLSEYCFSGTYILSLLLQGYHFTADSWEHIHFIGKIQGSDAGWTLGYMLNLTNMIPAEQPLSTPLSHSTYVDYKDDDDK
Method: The inhibition by antibodies of the enzymatic activity of soluble CD39 protein produced was evaluated using Cell Titer Glo™ (Promega, reference G7571) that allows assessment of ATP hydrolysis through use of a reagent that generates a luminescent signal proportional to the amount of ATP present. In this way, inhibition of the soluble-CD39-meidatd ATP hydrolysis can be assessed. Briefly, dose ranges of anti-CD39 antibodies from 100 μg/ml to 6×10^−3 μg/ml were incubated with 400 ng/ml of soluble recombinant human CD39 protein having the amino acid sequence described in the Methods section (SEQ ID NO: 45), for 1 h at 37° C. 20 μM ATP was added to the plates for 30 additional minutes at 37° C. before addition of CTG (Cell Titer Glo) reagent. Emitted light was quantified using an Enspire™ luminometer after a short incubation period of 5 min in the dark. Anti-CD39 antibody efficacy was determined by comparing emitted light in presence of antibody with ATP alone (maximal light emission) and ATP together with soluble CD39 protein (minimal light emission).

[2] = target: T2, human CD39 (vascular isoform) (Homo sapiens, UniProt P49961); assay: ELISA titration on recombinant human CD39; type: binding; settings: result in words
T2 sequence (P49961 1-510): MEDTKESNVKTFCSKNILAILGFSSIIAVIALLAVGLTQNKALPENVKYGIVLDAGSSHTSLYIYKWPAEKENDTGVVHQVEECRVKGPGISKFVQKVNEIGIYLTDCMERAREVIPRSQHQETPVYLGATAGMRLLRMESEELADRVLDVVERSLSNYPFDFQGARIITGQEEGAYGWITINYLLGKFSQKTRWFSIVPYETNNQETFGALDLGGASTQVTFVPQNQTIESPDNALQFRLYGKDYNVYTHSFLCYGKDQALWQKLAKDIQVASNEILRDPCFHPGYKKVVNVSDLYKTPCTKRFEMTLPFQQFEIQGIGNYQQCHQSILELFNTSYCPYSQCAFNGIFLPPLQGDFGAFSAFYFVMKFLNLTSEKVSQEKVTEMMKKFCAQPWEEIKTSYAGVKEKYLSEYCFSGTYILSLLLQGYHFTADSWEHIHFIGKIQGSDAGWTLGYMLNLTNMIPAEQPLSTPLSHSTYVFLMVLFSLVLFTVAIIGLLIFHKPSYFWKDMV
Method: Antibody I-394 was tested for binding to recombinant human CD39 isoforms (Rec-huCD39 isoforms) having amino acid sequences shown below were coated in 96-well plate in PBS 1× at 500 ng/ml or 1 μg/ml at 4° C. overnight. Wells were washed in TBS Tween 20, and further saturated 2H at RT in TBS Blocking buffer. Dose range concentration of primary antibody was incubated in TBS blocking buffer for 2 h at RT. Wells were washed in TBS Tween 20. […] Optical density was measured on Enspire™ at OD=450.

[3] = target: T3, human CD39-expressing CHO cells (CHO-huCD39) (Homo sapiens, UniProt P49961); assay: Inhibition of the enzymatic activity of cellular CD39 in CHO-huCD39; type: cell-based; settings: result in words
T3 construct: expressed in transfected cells; host or cells: CHO cells
T3 sequence (P49961 1-510): T2 sequence (P49961 1-510)
Method: The inhibition of the CD39 enzymatic activity in CD39-expressing cells by antibodies was evaluated using Cell Titer Glo™ (Promega, reference G7571) that allows assessment of ATP hydrolysis through use of a reagent that generates a luminescent signal proportional to the amount of ATP present. The assay was thus designed to permit assessment of the inhibition of ATP hydrolyzed by CD39 in the cell culture supernatant. Briefly, 5×10^4 Ramos human lymphoma cells, 5×10^3 human CD39-, cynomolgus CD39- and mouse CD39-expressing CHO cells, were incubated 1 hour at 37° C. with anti-CD39 antibodies from 30 μg/ml to […]. Cells were then incubated with 20 μM ATP for 1 additional hour at 37° C. Plates were centrifuged for 2 min at 400 g and 50 μl cell supernatant are transferred in a luminescence microplate (white wells). 50 μl CellTiter-Glo® Reagent (CTG) was added to the supernatant and emitted light was quantified after a 5 min incubation in the dark using a Enspire™ luminometer. Anti-CD39 antibody efficacy was determined by comparing emitted light in presence of antibody with ATP alone (maximal light emission) and ATP together with cells (minimal light emission).
The inhibition by antibody I-394 of the ATPase activity of CD39 in CD39-expressing cells was evaluated using the assay used for inhibition of the enzymatic activity of cellular CD39 as described above (Methods).

maximum inhibition achieved, soluble CD39 [1]: 74.9%
relative potency of inhibition of soluble CD39 (FIG. 2B) ([1]; ranking among I-394, I-395, I-396): greatest potency
binding to CD39 in ELISA [2]: bound
Substance: I-394: anti-CD39 antibody, VH SEQ ID NO: 6, VL SEQ ID NO: 7; human IgG1 Fc with L234A/L235E/G237A/A330S/P331S
inhibition of the enzymatic activity of soluble CD39 protein ([1]; result in words, 400 ng/ml sCD39, 20 μM ATP): strong inhibition; also recorded: inhibits
blocking CD39 enzymatic activity in CHO-huCD39 [3]: blocks
